The record followed here is the nanobody polyreactivity screen of Harvey et al. (2022).

This data set is described as follows: yeast display, Sf9 membrane polyspecificity reagent, FACS + sequencing; frameworks hold sequencing errors. The procedure, abridged:
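Using colony PCR, genes from sorted yeast display clones were amplified, then sequenced on MiSeq at 2 × 250 and filtered by CDR length. The clones had been stained with 10% biotinylated, detergent-solubilized Sf9 membrane reagent for 1 hour at 4 °C and sorted by FACS into low and high (top ~1%) gates on anti-HA and streptavidin fluorescence. Polyreactivity labels come from the gate of origin.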
Regarding “QVQLVESGGGLVQAGGSLRLSCAASGGIFDRYAMGWYRQAPGKERELVAAITSGGSTNYADSVKGRFTISRDNAKNTVYLQMNSLKPEDTAVYYCNADLGILSGVAEGPTFREYDYWGQGTQVTVSS”, the “polyreactivity (PSR sort gate)” value is reported as “low polyreactivity”.
The entry for “QVQLVESGGGLVQAGGSLRLSCAASGGIFDSYAMGWYRQAPGKERELVADITWSGGSTYYADSVKGSFTISRDNAKNTVYLQMNSLKPEDTAVYLCAAVWNSPYDYWGQGTLVTVSS” is “low polyreactivity”.
In the case of “QVQLVESGGGLVQAGGSLRLSCAASGGIFDTNAMGWSRQAPGKERELVAAIRGSGGTYYADSVKGRFTISRDNAKNTVYLQMNSLKPEDTAVYYCATRTYRVLAGSAWYHYNYWGQGTQVTVSS” it was “high polyreactivity”; in that of “QVQLVESGGGLVQAGGSLRLSCAASGGIFDTYAMGWYRQEPGKERELVAAISRRGGNTYYADSVKGRFTISRDNAKNTVYLQMNSLKPEDTAVYYCAAYYHGRMDYWGQGTQVTVSS”, “high polyreactivity”; in that of “QVQLVESGGGLVQAGGSLRLSCAASGGIFEAYVMGWYRHAPGKERELVAAISFRGGSTYYADSVKGRFTISRDNAKNTVYLQMNSLKPEDTAVYYCAADYRHQGYDYWGQGTQVTVSS”, “low polyreactivity”.
On to “QVQLVESGGGLVQAGGSLRLSCAASGGIFFLYAMGWYRQAPGKETELVAAIRQDGGSTYYADSVKGRFTISRDNAKNTVYLQMNSLKPEDTAVYYCNAGYVKTGLEYYYWGQGPQVTVSS”, for which the “polyreactivity (PSR sort gate)” value is recorded as “low polyreactivity”.
Consider “QVQLVESGGGLVQAGGSLRLSCAASGGIFFSYAMGWYRQAPGKERELVAAIRTNGGTTYYADSVKGRFTISRDNAKNTVYLQMNSLKPEDTAVYYCAALPGGYYDRGEYDYWGQGTQVTVSS”, for which the “polyreactivity (PSR sort gate)” value is “low polyreactivity”.
On to “QVQLVESGGGLVQAGGSLRLSCAASGGIFGINAMGWYRQAPGKEREFVAAITASGGTTYYADSVKGRFTISRDNAKNTVYLQMNSLKPEDTAVYYCAKRYRSYDYVWYEYWGQGTQVTVSS”, for which the “polyreactivity (PSR sort gate)” value is on record as “high polyreactivity”.
Regarding “QVQLVESGGGLVQAGGSLRLSCAASGGIFGRNAMGWYRQAPGKERELVASISKSGGSTYYADSVKGRFTISRDNAKNTVYLQMKSLKPEDSAVYYCAARYSYFNWDNYYWGQGTLVTVSS”, the “polyreactivity (PSR sort gate)” value is “high polyreactivity”.
For “QVQLVESGGGLVQAGGSLRLSCAASGGIFGRYAMGWYRQAPGKERELVAGISYSGGSTYYADSVKGRFTISRDNAKNSVYLQMNSLKPEDTAVYYCATGGYVWYRSVNVWTRMDYWGQGTQVTVSS”, the “polyreactivity (PSR sort gate)” value was “high polyreactivity”.
Take “QVQLVESGGGLVQAGGSLRLSCAASGGIFGRYAMGWYRQAPGKERELVAGLSYSGGSTYYADSVKGRFTISRDNEKNTVYLQMTSLKAEDTAVYYCAADTRRTYENYYWGQGTQVTVSS”: the “polyreactivity (PSR sort gate)” value is “high polyreactivity”.
With “QVQLVESGGGLVQAGGSLRLSCAASGGIFGTYTMGWYRQAPGKERELVAAIRSSSGRTYYADSVKGRFTISRDTAKNTVYLQMNSLKPEDTAVYYCNRAYTIQDDYWGQGTQVTVSS”, the “polyreactivity (PSR sort gate)” value was “high polyreactivity”.
For the sequence “QVQLVESGGGLVQAGGSLRLSCAASGGIFGVYAMGWYRQAPGKERELVAAISQSDTSTYYADSVKGRFTISRDNAKNTVYLQMNSLKPEDTAVYYCAAEYYLDYYTWFDYWGQGTQVTVSS”, the “polyreactivity (PSR sort gate)” value is “high polyreactivity”.
Turning to “QVQLVESGGGLVQAGGSLRLSCAASGGIFGWYAMGWYRQAPGKERELVAAITGGGSTYYADSVKGRFTISRDNAKNTVYLQMNSLKPEDTAVYYCNADYHTEEDYWGHGTQVTVSS”, the “polyreactivity (PSR sort gate)” value was “low polyreactivity”.
The entry for “QVQLVESGGGLVQAGGSLRLSCAASGGIFGYYAMAWYRQAPGKEREFVAAITLSGGRSYYADSVKGRFTISRDNAKNTVYLQMNSLKPEDTAVYYCNAYPYYLVRNMDSWGQGTQVTVTS” is “high polyreactivity”; for “QVQLVESGGGLVQAGGSLRLSCAASGGIFGYYAMGWYRQAPGKEREFVAAITARGGRTYYADSVKGRFTISRDNAKNTVYLQMNSLKPEDTAVYYCAAYSPVWGRYYHRVERDYWGQGTQVTVSS” it is “high polyreactivity”; for “QVQLVESGGGLVQAGGSLRLSCAASGGIFIANAMGWYRQAPGKERELVAAISSSGGSTYYADSVKGRFTISRDNAKNTVYLQMNSLKPEDTAVYYCNKLLTRSYRTYGRYGYWGQGTQVTVSS” it is “high polyreactivity”.
The entry for “QVQLVESGGGLVQAGGSLRLSCAASGGIFKKYAMGWYRQAPGKERELVAVITSGGRTNYADSVKGRFTISRDNAKNTVYLLMNSLKPEDTAVYYCAAVYVTGSYRYGYWGQGSQVTVSS” is “high polyreactivity”; for “QVQLVESGGGLVQAGGSLRLSCAASGGIFLGNAMAWYRQATGKETELVASITRGGDTSYADSVKARFTFSRDNAKNTVYLQMNSLKPEDTAVYYCNADYYSVVEYDYWGQGTQVTVSS” it is “low polyreactivity”.
In the case of “QVQLVESGGGLVQAGGSLRLSCAASGGIFLPNAMGWYRQAPGKERELVAAISTGGSTNYADSVKGRFTISRDNAKNTVYLQMNSLKPEDTAVYYCAATPYNYVGFSRGGDYWGQGTQVTVSS” it was “low polyreactivity”; in that of “QVQLVESGGGLVQAGGSLRLSCAASGGIFLYNSMGWYRQAPGKERELVADISSSGITYYADSVKGRFTISRDNAKNTVYLQMNSLNPEDTAVYYCAADSTTRPGLRVYDDYDYWGQGTQVTVSS”, “low polyreactivity”.
For “QVQLVESGGGLVQAGGSLRLSCAASGGIFPDYAMGSYRQAPGKERELVAVISDSGGSTYYADSVKGRFTISRDNAKNTVYLQMNSLKPEDTAVYYCAAETEWYYGYYEYWGQGTQVTVSS”, the “polyreactivity (PSR sort gate)” value was “high polyreactivity”.
The entry for “QVQLVESGGGLVQAGGSLRLSCAASGGIFPDYAMGWYRQAPGKERELVAVISDSGGSTYYADSVKGRFTISRDNAKNTVYLQMNSLKPEDTAVYYCSAETEWYYGYYEYWGQGTQVTVSS” is “high polyreactivity”.
The entry for “QVQLVESGGGLVQAGGSLRLSCAASGGIFRNYAMGWYRQAPGKERELVARISSAGSTNYADSVKGRFTNSRDNAKNTVYLLMNSLKPEDTAVYYCAKGWRSWAEEGHDYWGQGTQVTVSS” is “low polyreactivity”; for “QVQLVESGGGLVQAGGSLRLSCAASGGIFRPYAMGWYRQAPGKERELVAAITYNGGSTYYADSVKGRFTISRDNAKNTVYLQMNSLKPEDTAVYYCAAVSYSGPYAYEYWGQGTQVTVSS” it is “high polyreactivity”.
As for “QVQLVESGGGLVQAGGSLRLSCAASGGIFRVYAMGWYRQAPGNERELVAAINGRGTSTYYADSVKGRFTISRDNAKNTVYLQMNSLKPEDTAVYYCAASGQYHYDYWGQGTQVTVSS”, the “polyreactivity (PSR sort gate)” value is recorded as “high polyreactivity”.
With “QVQLVESGGGLVQAGGSLRLSCAASGGIFRYYAMGWYRQAPAKERELVAAISSGGRTYYADSVKGRFTISRDNAKTTVYLQMNSLKPEDTAVYYCNADRYWGYDYWGQGTQVTVSS”, the “polyreactivity (PSR sort gate)” value is recorded as “high polyreactivity”.
In the case of “QVQLVESGGGLVQAGGSLRLSCAASGGIFSKNVMGWYRQAPGKERELVAAISRGGTTSYADSVKGRFTISRDNAKNTVYLQMNSLKPEDTAVYFCAAKYWWYPYFTVDYDYWGQGTQVTVSS” it was “high polyreactivity”; in that of “QVQLVESGGGLVQAGGSLRLSCAASGGIFSVYAMGWYRQAPGKEREFVAAISKSGGRTYYADSVKGRFTISRDNAKNTVYLQMNSLKPEDTAVYYWNVVRRSPGDYSYYYWGQGTQVTVSS”, “low polyreactivity”; in that of “QVQLVESGGGLVQAGGSLRLSCAASGGIFSYAMGWYRQAPGKERELVAAISSGGSTYYADSVKGRFTISRDNAKNTVYLQMNSLKPEDTAVYYCAADGNGVDYDYWGQGTQVTVSS”, “low polyreactivity”.
